Among the data in article PMC3464228 are adherence of GBS strain COH31 to immobilized human fibrinogen (0.1 µM per well), percent of inoculum bound (% of inoculum) values, retold here.

In this test the target is purified human fibrinogen (human) (UniProt P02671).
UniProt P02671, sequence (P02671 36-866, chain 1 of 3): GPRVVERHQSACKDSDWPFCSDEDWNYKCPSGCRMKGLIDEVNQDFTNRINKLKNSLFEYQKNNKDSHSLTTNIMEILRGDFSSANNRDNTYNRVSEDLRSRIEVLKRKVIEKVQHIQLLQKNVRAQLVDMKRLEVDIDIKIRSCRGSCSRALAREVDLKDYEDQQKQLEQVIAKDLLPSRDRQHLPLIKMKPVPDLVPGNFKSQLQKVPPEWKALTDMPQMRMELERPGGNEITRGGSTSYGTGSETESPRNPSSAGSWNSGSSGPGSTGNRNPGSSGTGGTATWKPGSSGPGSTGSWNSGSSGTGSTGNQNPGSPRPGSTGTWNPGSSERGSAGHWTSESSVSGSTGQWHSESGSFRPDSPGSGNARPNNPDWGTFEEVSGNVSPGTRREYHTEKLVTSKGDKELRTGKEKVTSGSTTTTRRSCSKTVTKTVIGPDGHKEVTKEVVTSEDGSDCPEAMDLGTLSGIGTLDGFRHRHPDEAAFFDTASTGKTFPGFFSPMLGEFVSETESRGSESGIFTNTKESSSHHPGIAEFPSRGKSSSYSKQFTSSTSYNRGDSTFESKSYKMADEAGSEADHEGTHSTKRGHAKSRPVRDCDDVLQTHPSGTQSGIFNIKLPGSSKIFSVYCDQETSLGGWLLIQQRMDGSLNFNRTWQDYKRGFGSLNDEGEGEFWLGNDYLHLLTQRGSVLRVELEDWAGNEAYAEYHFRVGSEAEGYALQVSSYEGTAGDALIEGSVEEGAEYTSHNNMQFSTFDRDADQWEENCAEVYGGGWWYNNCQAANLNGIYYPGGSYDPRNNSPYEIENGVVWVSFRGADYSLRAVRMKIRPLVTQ
UniProt P02671, sequence (P02675 45-491, chain 2 of 3, further chain): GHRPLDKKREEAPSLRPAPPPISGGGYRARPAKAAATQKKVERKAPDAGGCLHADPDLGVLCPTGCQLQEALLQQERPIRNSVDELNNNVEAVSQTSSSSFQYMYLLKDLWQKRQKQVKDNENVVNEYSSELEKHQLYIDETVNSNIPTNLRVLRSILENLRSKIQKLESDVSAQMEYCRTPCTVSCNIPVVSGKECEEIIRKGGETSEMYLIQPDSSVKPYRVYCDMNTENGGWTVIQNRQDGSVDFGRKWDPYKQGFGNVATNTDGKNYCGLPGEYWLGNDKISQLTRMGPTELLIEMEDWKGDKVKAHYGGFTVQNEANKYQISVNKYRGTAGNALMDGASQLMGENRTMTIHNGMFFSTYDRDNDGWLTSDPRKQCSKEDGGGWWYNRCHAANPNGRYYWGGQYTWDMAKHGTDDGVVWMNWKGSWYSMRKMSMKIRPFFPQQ
UniProt P02671, sequence (P02679 27-453, chain 3 of 3, further chain): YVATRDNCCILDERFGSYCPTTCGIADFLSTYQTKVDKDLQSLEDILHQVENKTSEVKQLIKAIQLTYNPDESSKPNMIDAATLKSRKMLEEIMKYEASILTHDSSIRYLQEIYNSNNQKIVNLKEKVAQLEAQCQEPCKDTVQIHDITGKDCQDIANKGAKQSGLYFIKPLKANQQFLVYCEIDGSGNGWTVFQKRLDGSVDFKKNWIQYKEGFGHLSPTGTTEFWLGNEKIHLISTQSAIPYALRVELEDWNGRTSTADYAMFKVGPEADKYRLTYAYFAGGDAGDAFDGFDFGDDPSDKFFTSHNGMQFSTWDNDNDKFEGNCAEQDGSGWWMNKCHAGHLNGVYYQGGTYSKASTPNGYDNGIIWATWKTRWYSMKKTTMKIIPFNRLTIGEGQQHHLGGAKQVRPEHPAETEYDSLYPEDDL

“serine-rich repeat glycoprotein Srr1 of Streptococcus agalactiae (native, surface expressed) (natural protein)” gave an adherence of GBS strain COH31 to immobilized human fibrinogen (0.1 µM per well), percent of inoculum bound (% of inoculum) of 16.
